# Results: publication PMC12416549 (2024)
# Where a chain is given by its changes, count along the chain named. Numbers in names are those of the source.
# B1: E101R (designed binder)
# chain: MTLQELLREEALRRAEAEAFRYALELLAEKFPEQKEYLLDLAEEIESQIRSLSGVDVEDVRKFLDKEWAWVKELLAEHPAELAEVEAARAARLAELRAEVRAKVAA
# B2: Q34I (designed binder)
# chain: B1 chain with Q34I, R101E
# B3: L38R (designed binder)
# chain: B1 chain with L38R, R101E
# B4: A80K (designed binder)
# chain: B1 chain with A80K, R101E
# B5: A102M (designed binder)
# chain: B1 chain with R101E, A102M
# B6: E67W (designed binder)
# chain: B1 chain with E67W, R101E
# B7: W68I (designed binder)
# chain: B1 chain with W68I, R101E
# B8: L39F (designed binder)
# chain: B1 chain with L39F, R101E
# B9: D40M (designed binder)
# chain: B1 chain with D40M, R101E
# B10: L3I (designed binder)
# chain: B1 chain with L3I, R101E
# B11: R97V (designed binder)
# chain: B1 chain with R97V, R101E
# B12: I45F (designed binder)
# chain: B1 chain with I45F, R101E
# B13: V55H (designed binder)
# chain: B1 chain with V55H, R101E
# B14: E10H (designed binder)
# chain: B1 chain with E10H, R101E
# B15: L41Q (designed binder)
# chain: B1 chain with L41Q, R101E
# B16: Q48T (designed binder)
# chain: B1 chain with Q48T, R101E
# B17: E43A (designed binder)
# chain: B1 chain with E43A, R101E
# B18: A102W (designed binder)
# chain: B1 chain with R101E, A102W
# B19: E18Y (designed binder)
# chain: B1 chain with E18Y, R101E
# B20: D56L (designed binder)
# chain: B1 chain with D56L, R101E
# B21: R92M (designed binder)
# chain: B1 chain with R92M, R101E
# B22: E44G (designed binder)
# chain: B1 chain with E44G, R101E
# B23: V60A (designed binder)
# chain: B1 chain with V60A, R101E
# B24: Y37N (designed binder)
# chain: B1 chain with Y37N, R101E
# B25: H78G (designed binder)
# chain: B1 chain with H78G, R101E
# B26: D40F (designed binder)
# chain: B1 chain with D40F, R101E
# B27: E10G (designed binder)
# chain: B1 chain with E10G, R101E
# B28: E101N (designed binder)
# chain: B1 chain with R101N
# B29: V100K (designed binder)
# chain: B1 chain with V100K, R101E
# B30: A17I (designed binder)
# chain: B1 chain with A17I, R101E
# B31: L96I (designed binder)
# chain: B1 chain with L96I, R101E
# B32: R89D (designed binder)
# chain: B1 chain with R89D, R101E
# B33: A98F (designed binder)
# chain: B1 chain with A98F, R101E
# B34: D65W (designed binder)
# chain: B1 chain with D65W, R101E
# B35: F20T (designed binder)
# chain: B1 chain with F20T, R101E
# B36: S51A (designed binder)
# chain: B1 chain with S51A, R101E
# B37: A105V (designed binder)
# chain: B1 chain with R101E, A105V
# B38: E5H (designed binder)
# chain: B1 chain with E5H, R101E
# B39: K35F (designed binder)
# chain: B1 chain with K35F, R101E
# B40: L52W (designed binder)
# chain: B1 chain with L52W, R101E
# B41: A23W (designed binder)
# chain: B1 chain with A23W, R101E
# B42: E9P (designed binder)
# chain: B1 chain with E9P, R101E
# B43: Y22D (designed binder)
# chain: B1 chain with Y22D, R101E
# B44: K30Q (designed binder)
# chain: B1 chain with K30Q, R101E
# B45: Y22P (designed binder)
# chain: B1 chain with Y22P, R101E
# B46: L41K (designed binder)
# chain: B1 chain with L41K, R101E
# B47: L74A (designed binder)
# chain: B1 chain with L74A, R101E
# B48: F63E (designed binder)
# chain: B1 chain with F63E, R101E
# B49: K62N (designed binder)
# chain: B1 chain with K62N, R101E
# B50: L74G (designed binder)
# chain: B1 chain with L74G, R101E
# B51: R61M (designed binder)
# chain: B1 chain with R61M, R101E
# B52: A28P (designed binder)
# chain: B1 chain with A28P, R101E
# B53: E77C (designed binder)
# chain: B1 chain with E77C, R101E
# B54: L75A (designed binder)
# chain: B1 chain with L75A, R101E
# B55: R8D (designed binder)
# chain: B1 chain with R8D, R101E
# B56: P32L (designed binder)
# chain: B1 chain with P32L, R101E
# B57: Q34D (designed binder)
# chain: B1 chain with Q34D, R101E
# B58: Y37G (designed binder)
# chain: B1 chain with Y37G, R101E
# B59: V85W (designed binder)
# chain: B1 chain with V85W, R101E
# Molecular target: T1, TNFR1 (Homo sapiens, UniProt P19438)
# T1 chain: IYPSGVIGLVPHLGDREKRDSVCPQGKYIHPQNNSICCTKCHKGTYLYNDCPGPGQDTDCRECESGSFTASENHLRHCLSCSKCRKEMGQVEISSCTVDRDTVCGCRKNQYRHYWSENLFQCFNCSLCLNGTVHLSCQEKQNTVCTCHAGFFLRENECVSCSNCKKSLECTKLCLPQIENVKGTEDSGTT
# Experiment: yeast display SC50
row,Binder,apparent Kd (screen) [nM]
1,B1,0.49
2,B2,0.593
3,B3,4.39
4,B4,0.718
5,B5,0.718
6,B6,10.4
7,B7,0.79
8,B8,0.189
9,B9,0.593
10,B10,0.539
11,B11,0.49
12,B12,3.63
13,B13,1.16
14,B14,3.3
15,B15,2.48
16,B16,1.54
17,B17,0.79
18,B18,0.539
19,B19,0.539
20,B20,2.73

row,Binder,apparent Kd (screen) [nM]
1,B21,0.593
2,B22,20.2
3,B23,0.653
4,B24,0.869
5,B25,0.593
6,B26,18.3
7,B27,1.4
8,B28,0.718
9,B29,0.49
10,B30,0.229
11,B31,0.869
12,B32,2.48
13,B33,0.593
14,B34,0.79
15,B35,1.16
16,B36,0.869
17,B37,0.718
18,B38,0.49
19,B39,0.539
20,B40,0.405

row,Binder,apparent Kd (screen) [nM]
1,B41,0.869
2,B42,20.2
3,B43,0.446
4,B44,0.718
5,B45,4.39
6,B46,11.4
7,B47,1.69
8,B48,0.593
9,B49,0.49
10,B50,6.43
11,B51,0.593
12,B52,2.05
13,B53,1.16
14,B54,0.653
15,B55,0.593
16,B56,0.593
17,B57,5.31
18,B58,5.31
19,B59,0.869
